Source: paper PMC5911420 (DNA repair, 2018)
Where two headings read alike, the source gives them in different places.

Experiments:
Assay in all cases: SEC-MALS
[1] = target: the molecule itself
[2] = target: T1, full-length NEIL1 DNA glycosylase, His-tagged (human, UniProt Q96FI4 1-390)
[3] = target: T1, full-length NEIL1 DNA glycosylase, …; remark: listed apart in the source

T1 sequence (Q96FI4 whole entry): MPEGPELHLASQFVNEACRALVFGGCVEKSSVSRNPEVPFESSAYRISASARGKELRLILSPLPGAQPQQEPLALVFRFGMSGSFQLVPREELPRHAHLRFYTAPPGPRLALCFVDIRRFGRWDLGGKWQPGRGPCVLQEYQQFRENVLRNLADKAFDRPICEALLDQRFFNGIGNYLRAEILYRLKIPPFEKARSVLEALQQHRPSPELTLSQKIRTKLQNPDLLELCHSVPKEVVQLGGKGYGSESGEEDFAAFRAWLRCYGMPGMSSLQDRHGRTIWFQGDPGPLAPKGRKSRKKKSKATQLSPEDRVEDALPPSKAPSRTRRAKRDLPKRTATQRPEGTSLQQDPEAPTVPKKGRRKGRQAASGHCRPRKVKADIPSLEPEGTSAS

B1: human mitochondrial single-stranded DNA binding protein, purified recombinant (natural protein, UniProt Q04837 17-148, looked up)
chain: ESETTTSLVLERSLNRVHLLGRVGQDPVLRQVEGKNPVTIFSLATNEMWRSGDSEVYQLGDVSQKTTWHRISVFRPGLRDVAYQYVKKGSRIYLEGKIDYGEYMDKNNVRRQATTIIADNIIFLSDQTKEKE
stoichiometry N [1]: 4
stoichiometry N [2]: 1 mtSSB tetramer per NEIL1 (with one DNA)
stoichiometry N [3]: 1 mtSSB monomer per NEIL1
